{"source": "patent US8980614B2", "about": "“Staphylococcus haemolyticus prophage φSH2 endolysin is lytic for Staphylococcus aureus” (The United States of America, as represented by The …, priority 2012, dated 2015)", "molecules": {"B1": {"name": "ΦSH2 A1: Truncation of φSH2 lysin (1-166), isolated CHAP domain, 6×His-tagged, from pφSH2_A1, SEQ ID NO:4 (protein)", "chain": "MKTQAEINKRLDAYRKGTVDSPYRVKVWTSYDNRFYPMEPGCIDVDKSFHAQCADLTIDYILWLTDNEFRIRGNAKDAINPKKNKLPEGWKIVLNRPSTVPRKGWIAVFTDGTYWEYGHIGMVYDGGNTSRFQILEQNWNGWANKKPSLRWDNYYGLTHFIVPPVALEHHHHHH", "modifications": "6xHis tag; Bacteriophage Phi SH2"}}, "key": {"[1]": {"tested_on": "staphylococcal strains (MRSA strains, mastitis isolates, coagulase negative staphylococci)", "test": "Plate lysis assay, whole set of strains", "type": "cell-based, Staphylococcus", "conditions": "100 to 3.125 pmoles spotted", "experimental": "(§1) Purified proteins (100 pmoles in a 10 μl volume and five two-fold serial dilutions thereof) were spotted onto a freshly spread lawn of log phase staphylococcal cells (OD600 nm of 0.4-0.6, diluted ¼ before plating) that had air dried for 15 min on gridded TSA (tryptic soy agar) plates. The spotted plates were air dried for 10 min in a laminar flow hood and incubated overnight at 37° C. Cleared spots indicating cell lysis were scored within 24 hours of plating the cells.\n(§2) The φSH2 full length enzyme and the A1 construct were further tested in plate lysis assays against a set of different staphylococcal strains, including MRSA strains (NRS 382-385), mastitis isolates (305, Tanji 1-26), and coagulase negative staphylococci (non S. aureus) (Table 2). The same molar amounts of both proteins (ranging from 100 pmoles to 3.125 pmoles, in a volume of 10 ul) were spotted onto lawns of mid log phase cells of the respective strains, and the plates were analyzed for lysis zones the next day."}, "S. aureus Newman cells [2]": {"tested_on": "S. aureus Newman cells", "test": "Turbidity reduction assay", "type": "cell-based, Staphylococcus aureus", "experimental": "The turbidity reduction assay measures a decrease in optical density of a bacterial suspension due to lysis of the target bacteria by a lytic protein. The assays were performed in a 96-well dish format essentially as described previously (Donovan et al. 2006, supra). In order to reduce the variability of the assay, frozen stocks of S. aureus Newman substrate cells were prepared in a large batch as described by Becker et al. (2009b, supra). Immediately prior to the assay, the frozen cells were thawed, washed, and resuspended in the desired assay buffer such that when 100 μl of cell suspension were added to 100 μl of lysis buffer+/−protein, the final suspension has an OD600nm of ˜1.0.\nProtein constructs were assayed at a concentration of 1 μM, and the assay was performed at room temperature, measuring the OD600nm at 1 min intervals for 45 min. Buffer without enzyme served as the control. The steepest slopes of the resulting lysis curves, which correspond to the lytic activities of the proteins, were determined by a sliding window over each group of three consecutive time points for the entire 45 min period. Specific activities were expressed as ΔOD600nm/min/μM, and the “no enzyme” control value was subtracted from each experimental value.\nIn order to determine the effect of salt concentration on lytic activity, turbidity reduction assays were performed in 10 mM Tris buffers at pH 7.5 with varying NaCl concentrations between 0 mM and 600 mM. Accordingly, the influence of pH was determined by using a series of different buffers with pH values ranging from 3.5 to 10.0. Citrate buffers were used for pH 3.5, 4.5, 5.5, and 6.0, MOPS buffers for pH 6.5, 7.0, and 7.5, Tris buffers for pH 8.0 and 9.0, and Carbonate/bicarbonate buffer for pH 10.0. The concentration of the buffer substance in all buffers used was 20 mM, and the NaCl concentration was 200 mM. To test the effect of bivalent metal ions, assays were performed in 10 mM Tris, 200 mM NaCl, pH 7.5 supplemented with MgCl2, MnCl2, or CaCl2 at different concentrations (0.1 mM, 1 mM, 10 mM), buffer without metal ions serving as control."}, "S. aureus Newman cells [3]": {"tested_on": "S. aureus Newman cells", "test": "Zymogram with S. aureus Newman cells embedded in the gel", "type": "cell-based", "conditions": "5 μg protein", "experimental": "All purified proteins were analyzed with 15% SDS-PAGE, using a Kaleidoscope Precision Plus Protein Standard (BioRad, Hercules, Calif.). For zymograms, a 300 mL culture volume equivalent of live mid-log phase (OD600nm=0.4-0.6) cells of S. aureus strain Newman was embedded in the gel during polymerization. The protein samples were boiled in Laemmli sample buffer (BioRad) with β-mercaptoethanol, and electrophoresed with identical buffers and voltage for one hour in both the SDS-PAGE and the zymogram using a Mini-Protean TETRA gel system (BioRad). SDS gels were Coomassie stained and zymograms were washed in excess water and further incubated in deionized water for 60 min, followed by incubation in 10 mM Tris, pH 8.0 with 150 mM or 300 mM NaCl for 80 min. Areas of clearing in the turbid zymogram gel indicate a lytic protein in the gel."}, "S. simulans": {"tested_on": "S. simulans", "test": "Plate lysis assay", "type": "cell-based", "experimental": "as §1, §2"}, "S. xylocus": {"tested_on": "S. xylocus", "test": "Plate lysis assay", "type": "cell-based", "conditions": "100 pmoles and 2-fold serial dilutions spotted on bacterial lawns", "experimental": "as §1, §2"}, "S. aureus Tanji 26": {"tested_on": "S. aureus Tanji 26", "test": "Plate lysis assay", "type": "cell-based", "conditions": "100 pmoles and 2-fold serial dilutions spotted on bacterial lawns", "experimental": "as §1, §2"}, "S. aureus NRS 382": {"tested_on": "S. aureus NRS 382", "test": "Plate lysis assay", "type": "cell-based", "conditions": "S. aureus NRS 382 (MRSA); 100 pmoles and 2-fold serial dilutions spotted on bacterial lawns", "experimental": "as §1, §2"}, "S. aureus 305": {"tested_on": "S. aureus 305", "test": "Plate lysis assay", "type": "cell-based", "conditions": "100 pmoles and 2-fold serial dilutions spotted on bacterial lawns", "experimental": "as §1, §2"}, "S. chromogenes": {"tested_on": "S. chromogenes", "test": "Plate lysis assay", "type": "cell-based", "conditions": "100 pmoles and 2-fold serial dilutions spotted on bacterial lawns", "experimental": "as §1, §2"}, "S. epidermidis": {"tested_on": "S. epidermidis", "test": "Plate lysis assay", "type": "cell-based", "conditions": "100 pmoles and 2-fold serial dilutions spotted on bacterial lawns", "experimental": "as §1, §2"}, "S. aureus NRS 385": {"tested_on": "S. aureus NRS 385", "test": "Plate lysis assay", "type": "cell-based", "conditions": "S. aureus NRS 385 (MRSA); 100 pmoles and 2-fold serial dilutions spotted on bacterial lawns", "experimental": "as §1, §2"}, "S. aureus Tanji 19": {"tested_on": "S. aureus Tanji 19", "test": "Plate lysis assay", "type": "cell-based", "conditions": "100 pmoles and 2-fold serial dilutions spotted on bacterial lawns", "experimental": "as §1, §2"}, "S. warneri": {"tested_on": "S. warneri", "test": "Plate lysis assay", "type": "cell-based", "conditions": "100 pmoles and 2-fold serial dilutions spotted on bacterial lawns", "experimental": "as §1, §2"}, "S. aureus NRS 383": {"tested_on": "S. aureus NRS 383", "test": "Plate lysis assay", "type": "cell-based", "conditions": "S. aureus NRS 383 (MRSA); 100 pmoles and 2-fold serial dilutions spotted on bacterial lawns", "experimental": "as §1, §2"}, "S. aureus Tanji 20": {"tested_on": "S. aureus Tanji 20", "test": "Plate lysis assay", "type": "cell-based", "conditions": "100 pmoles and 2-fold serial dilutions spotted on bacterial lawns", "experimental": "as §1, §2"}, "S. aureus Tanji 1": {"tested_on": "S. aureus Tanji 1", "test": "Plate lysis assay", "type": "cell-based", "conditions": "100 pmoles and 2-fold serial dilutions spotted on bacterial lawns", "experimental": "as §1, §2"}, "S. aureus Newman": {"tested_on": "S. aureus Newman", "test": "Plate lysis assay", "type": "cell-based", "experimental": "as §1, §2"}, "S. hyicus": {"tested_on": "S. hyicus", "test": "Plate lysis assay", "type": "cell-based", "experimental": "as §1, §2"}, "S. aureus NRS 384": {"tested_on": "S. aureus NRS 384", "test": "Plate lysis assay", "type": "cell-based", "conditions": "S. aureus NRS 384 (MRSA); 100 pmoles and 2-fold serial dilutions spotted on bacterial lawns", "experimental": "as §1, §2"}, "[4]": {"conditions": "100 pmoles and 2-fold serial dilutions spotted on bacterial lawns"}}}
{"molecule": "B1", "values": [{"measurement": "strains against which lytic activity was displayed", "setting": "[1]; 16 strains tested", "result": "13 out of 16"}, {"measurement": "MRSA strains lysed", "setting": "[1]; four MRSA strains (NRS 382-385)", "result": "two MRSA strains"}, {"measurement": "lytic (specific) activity compared with the full length φSH2 lysin", "setting": "S. aureus Newman cells [2]; 1 μM protein, at optimum salt concentration", "result": "approximately three-fold higher"}, {"measurement": "increase of lytic activity by Ca2+", "setting": "S. aureus Newman cells [2]; 1 mM CaCl2, relative to 0 mM, 10 mM Tris, 200 mM NaCl, pH 7.5", "result": "more than 6 fold"}, {"measurement": "effect of Mg2+ on lytic activity", "setting": "S. aureus Newman cells [2]; 0.1-10 mM MgCl2, 10 mM Tris, 200 mM NaCl, pH 7.5", "result": "not significantly alter"}, {"measurement": "effect of Mn2+ on lytic activity", "setting": "S. aureus Newman cells [2]; 0.1-10 mM MnCl2, 10 mM Tris, 200 mM NaCl, pH 7.5", "result": "slightly inhibitory effect"}, {"measurement": "lysis in zymogram", "setting": "S. aureus Newman cells [3]; after incubation in deionized water for 60 min", "result": "did not cause a lytic band"}, {"measurement": "lysis in zymogram", "setting": "S. aureus Newman cells [3]; water 60 min, then 10 mM Tris, 150 mM NaCl, pH 8.0 up to 80 min", "result": "intense lytic band"}, {"measurement": "Lytic activity (lowest amount of protein producing a lysis zone)", "setting": "S. simulans; [4]", "result": "+++ (+++: 25 pmoles)"}, {"measurement": "amount of protein causing a lysis zone", "setting": "S. simulans; 100 to 3.125 pmoles spotted", "result": 25, "unit": "pmol"}, {"measurement": "Lytic activity (lowest amount of protein producing a lysis zone)", "setting": "S. xylocus", "result": "++ (++: 50 pmoles)"}, {"measurement": "Lytic activity (lowest amount of protein producing a lysis zone)", "setting": "S. aureus Tanji 26", "result": "+ (+: 100 pmoles)"}, {"measurement": "Lytic activity (lowest amount of protein producing a lysis zone)", "setting": "S. aureus NRS 382", "result": "++ (++: 50 pmoles)"}, {"measurement": "Lytic activity (lowest amount of protein producing a lysis zone)", "setting": "S. aureus 305", "result": "++++ (++++: 12.5 pmoles)"}, {"measurement": "Lytic activity (lowest amount of protein producing a lysis zone)", "setting": "S. chromogenes", "result": "++ (++: 50 pmoles)"}, {"measurement": "Lytic activity (lowest amount of protein producing a lysis zone)", "setting": "S. epidermidis", "result": "− (‘−’ means that no lysis was observed at the highest amount tested (100 pmoles))"}, {"measurement": "Lytic activity (lowest amount of protein producing a lysis zone)", "setting": "S. aureus NRS 385", "result": "− (‘−’ means that no lysis was observed at the highest amount tested (100 pmoles))"}, {"measurement": "Lytic activity (lowest amount of protein producing a lysis zone)", "setting": "S. aureus Tanji 19", "result": "+++ (+++: 25 pmoles)"}, {"measurement": "Lytic activity (lowest amount of protein producing a lysis zone)", "setting": "S. warneri", "result": "++ (++: 50 pmoles)"}, {"measurement": "Lytic activity (lowest amount of protein producing a lysis zone)", "setting": "S. aureus NRS 383", "result": "− (‘−’ means that no lysis was observed at the highest amount tested (100 pmoles))"}, {"measurement": "Lytic activity (lowest amount of protein producing a lysis zone)", "setting": "S. aureus Tanji 20", "result": "+++ (+++: 25 pmoles)"}, {"measurement": "Lytic activity (lowest amount of protein producing a lysis zone)", "setting": "S. aureus Tanji 1", "result": "+++ (+++: 25 pmoles)"}, {"measurement": "Lytic activity (lowest amount of protein producing a lysis zone)", "setting": "S. aureus Newman; [4]", "result": "+ (+: 100 pmoles)"}, {"measurement": "amount of protein causing a lysis zone", "setting": "S. aureus Newman; 100 to 3.125 pmoles spotted", "result": 100, "unit": "pmol"}, {"measurement": "Lytic activity (lowest amount of protein producing a lysis zone)", "setting": "S. hyicus; [4]", "result": "++++ (++++: 12.5 pmoles)"}, {"measurement": "amount of protein causing a lysis zone", "setting": "S. hyicus; 100 to 3.125 pmoles spotted", "result": 12.5, "unit": "pmol"}, {"measurement": "Lytic activity (lowest amount of protein producing a lysis zone)", "setting": "S. aureus NRS 384", "result": "++ (++: 50 pmoles)"}]}
